Measured values reported in PMC12795676, “Integrin α5β1 mediates the inhibitory effects of vasoinhibin on angiogenesis and vascular permeability [drawing 1]” (The Journal of Biological Chemistry, 2025).
Positions count from the first letter of the chain named. In names and notes the source's numbering stands.

B1: Vi-H46A: Vi mutant H46A (protein)
chain: LPICPGGAARCQVTLRDLFDRAVVLSHYIHNLSSEMFSEFDKRYTAGRGFITKAINSCHTSSLATPEDKEQAQQMNQKDFLSLIVSILRSWNEPLYHLVTEVRGMQEAPEAILSKAVEIEEQTKRLLEGMELIVSQVHPETKENEIYPVWSGLPSLQMADEESRLSAYYNLLHCLRRDSHKIDNYLKLLKCRIIHNNNC
B2: Vi-H46A/R48A: Vi double mutant H46A/R48A (protein)
chain: B1 chain with R48A
B3: Vi-R48A: Vi mutant R48A (protein)
chain: B1 chain with A46H, R48A

Target: T1, integrin α5β1 (Homo sapiens, UniProt P05556+P08648)
T1 construct: purchased Bio-Techne
Assay: ELISA, binding to immobilized integrin α5β1
Details: 100 nM mutant, compared with Vi
Experimental: Vi ([49]) and its mutants were produced as reported ([14]). HUVECs were cultured as reported ([14], [50]).
Plates coated with 2 μg mL^−1 integrin α5β1, PAI-1, or PAI-1-uPA complex (37 °C, 10 min) were incubated with B-Vi45-51, Vi, or 100 nM ViH46A, ViR48A, or ViH46A/R48A. Competition used excess Src, alanine mutants, or THGR peptides. Detection used horseradish peroxidase antibodies and 3,3′,5,5′-tetramethylbenzidine.

T1 sequence (P08648 42-995 limits assumed): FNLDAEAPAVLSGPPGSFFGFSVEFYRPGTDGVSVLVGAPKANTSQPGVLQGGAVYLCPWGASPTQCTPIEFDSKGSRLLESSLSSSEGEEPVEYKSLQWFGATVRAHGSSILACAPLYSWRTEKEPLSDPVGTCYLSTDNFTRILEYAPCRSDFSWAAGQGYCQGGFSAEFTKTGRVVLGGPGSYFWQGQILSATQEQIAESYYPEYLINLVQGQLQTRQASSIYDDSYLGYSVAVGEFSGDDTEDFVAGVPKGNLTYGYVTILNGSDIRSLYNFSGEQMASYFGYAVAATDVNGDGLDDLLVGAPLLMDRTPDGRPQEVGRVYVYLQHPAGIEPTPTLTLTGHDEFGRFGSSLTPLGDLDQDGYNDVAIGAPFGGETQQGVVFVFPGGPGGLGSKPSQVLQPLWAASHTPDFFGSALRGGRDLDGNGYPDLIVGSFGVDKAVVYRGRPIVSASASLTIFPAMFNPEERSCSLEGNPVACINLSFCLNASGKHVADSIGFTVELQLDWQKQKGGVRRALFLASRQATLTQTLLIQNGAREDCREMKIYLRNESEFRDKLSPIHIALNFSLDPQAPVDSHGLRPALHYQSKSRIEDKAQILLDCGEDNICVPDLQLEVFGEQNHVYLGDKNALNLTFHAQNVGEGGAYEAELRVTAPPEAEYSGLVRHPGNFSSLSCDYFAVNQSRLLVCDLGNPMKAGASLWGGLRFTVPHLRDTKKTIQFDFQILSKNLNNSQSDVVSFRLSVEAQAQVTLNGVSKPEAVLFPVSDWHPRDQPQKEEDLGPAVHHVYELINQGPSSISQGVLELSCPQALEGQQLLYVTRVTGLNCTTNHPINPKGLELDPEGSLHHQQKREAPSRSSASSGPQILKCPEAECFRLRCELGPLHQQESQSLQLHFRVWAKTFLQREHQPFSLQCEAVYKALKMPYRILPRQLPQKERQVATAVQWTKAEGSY
T1 sequence (P05556 21-728 limits assumed): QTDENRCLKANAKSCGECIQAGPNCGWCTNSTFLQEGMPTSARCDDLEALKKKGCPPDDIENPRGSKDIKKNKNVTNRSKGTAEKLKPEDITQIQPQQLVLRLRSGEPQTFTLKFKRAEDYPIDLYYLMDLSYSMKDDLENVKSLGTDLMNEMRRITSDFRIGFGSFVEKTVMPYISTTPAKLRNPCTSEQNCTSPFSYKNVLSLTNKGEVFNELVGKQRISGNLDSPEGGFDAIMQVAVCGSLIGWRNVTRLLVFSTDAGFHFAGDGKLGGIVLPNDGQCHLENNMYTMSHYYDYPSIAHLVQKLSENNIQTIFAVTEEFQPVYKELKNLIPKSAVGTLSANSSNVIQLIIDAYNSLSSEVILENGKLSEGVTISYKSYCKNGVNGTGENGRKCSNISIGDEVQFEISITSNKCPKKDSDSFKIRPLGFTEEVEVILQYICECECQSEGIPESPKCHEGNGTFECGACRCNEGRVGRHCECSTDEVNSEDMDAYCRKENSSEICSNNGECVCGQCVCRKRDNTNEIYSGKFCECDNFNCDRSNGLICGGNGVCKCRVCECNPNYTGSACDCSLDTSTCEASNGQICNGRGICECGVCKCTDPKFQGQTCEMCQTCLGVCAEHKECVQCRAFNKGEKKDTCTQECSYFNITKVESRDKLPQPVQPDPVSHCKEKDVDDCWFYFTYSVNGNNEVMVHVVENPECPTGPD

Molecule	Integrin α5β1 binding of Vi mutants
B1	reduced integrin binding
B2	reduced integrin binding
B3	reduced integrin binding
